# Where a chain is given by its changes, count along the chain named. Names and notes keep the numbering of the source.
# B1: TPR(2-142) F113M (domain or fragment, human, UniProt P12270 2-142, looked up)
# chain: AAVLQQVLERTELNKLPKSVQNKLEKFLADQQSEIDGLKGRHEKFKVESEQQYFEIEKRLSHSQERLVNETRECQSLRLELEKLNNQLKALTEKNKELEIAQDRNIAIQSQMTRTKEELEAEKRDLIRTNERLSQELEYLT
# modifications: selenomethionine (SeMet construct)
# B2: TPR(2-142) F55M/F113M (domain or fragment, human, UniProt P12270 2-142, looked up)
# chain: B1 chain with F54M
# modifications: selenomethionine (SeMet construct)
# Experiments:
# crystal structure = target: the molecule itself; test: crystal structure
# SEC = target: the molecule itself; test: SEC
Protein,stoichiometry N (crystal structure),stoichiometry N (SEC)
B1,4,–
B2,2,4
